{"source": "paper PMC3592474", "details_in_all_cases": "100 mM Na+, pH 7.5, 21 C; slow pulling (100 nm/s) for equilibrium measurements", "key": {"[1]": {"test_system": "Nhp6Ap (Saccharomyces cerevisiae)", "test": "optical tweezers, persistence/contour length, Hill fit"}, "[2]": {"test_system": "HMGB2 (box A), +/- His tag average (human)", "test": "optical tweezers, persistence/contour length, Hill fit"}, "[3]": {"test_system": "Nhp6Ap (Saccharomyces cerevisiae)", "test": "optical tweezers, WLC/FJC linear combination fit"}, "[4]": {"test_system": "HMGB2 (box A), +/- His tag average (human)", "test": "optical tweezers, WLC/FJC linear combination fit"}, "[5]": {"test_system": "Nhp6Ap (Saccharomyces cerevisiae)", "test": "optical tweezers, overstretching force, Hill fit"}, "[6]": {"test_system": "HMGB2 (box A), +/- His tag average (human)", "test": "optical tweezers, overstretching force, Hill fit"}, "[7]": {"test_system": "HMGB2 (box A) +his (human)", "test": "optical tweezers, overstretching force vs concentration"}, "[8]": {"test_system": "HMGB2 (box A) -his (human)", "test": "optical tweezers, overstretching force vs concentration"}, "[9]": {"test_system": "Nhp6Ap (Saccharomyces cerevisiae)", "test": "optical tweezers, overstretching force vs concentration"}, "[10]": {"test_system": "HMGB2 (box A), +/- His tag average (human)", "test": "optical tweezers, overstretching force vs concentration"}, "[11]": {"test_system": "HMGB2 (box A) +his (human)", "test": "optical tweezers, persistence/contour length vs concentration"}, "[12]": {"test_system": "HMGB2 (box A) -his (human)", "test": "optical tweezers, persistence/contour length vs concentration"}, "[13]": {"test_system": "Nhp6Ap (Saccharomyces cerevisiae)", "test": "optical tweezers, persistence/contour length vs concentration"}, "[14]": {"test_system": "HMGB2 (box A), +/- His tag average (human)", "test": "optical tweezers, persistence/contour length vs concentration"}}}
{"substance": "phage lambda DNA", "values": [{"measurement": "Kd", "setting": "[1]", "result": 66, "unit": "nM"}, {"measurement": "Kd", "setting": "[2]", "result": 170, "unit": "nM"}, {"measurement": "Kd", "setting": "[3]", "result": 63, "unit": "nM"}, {"measurement": "Kd", "setting": "[4]", "result": 460, "unit": "nM"}, {"measurement": "Kd", "setting": "[5]", "result": 150, "unit": "nM"}, {"measurement": "Kd", "setting": "[6]", "result": 850, "unit": "nM"}, {"measurement": "Kd", "setting": "[7]", "result": 930, "unit": "nM"}, {"measurement": "Kd", "setting": "[8]", "result": 830, "unit": "nM"}, {"measurement": "Kd", "setting": "[9]", "result": 160, "unit": "nM"}, {"measurement": "Kd", "setting": "[10]", "result": 880, "unit": "nM"}, {"measurement": "Kd", "setting": "[11]", "result": 230, "unit": "nM"}, {"measurement": "Kd", "setting": "[12]", "result": 130, "unit": "nM"}, {"measurement": "Kd", "setting": "[13]", "result": 71, "unit": "nM"}, {"measurement": "Kd", "setting": "[14]", "result": 180, "unit": "nM"}]}
